From patent publication US20190233498A1 (H LUNDBECK A S, published 2019)

T1: human PACAP38 (human, not fully specified; C-terminal lysine is amidated; N-terminal or C-terminal biotin in the HTRF and PC-12 cell binding assays)
T1 peptide: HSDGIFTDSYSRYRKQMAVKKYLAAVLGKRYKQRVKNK

T2: human PACAP27 (human, C-terminal leucine is amidated; 125I-labelled in Example 10)
T2 peptide: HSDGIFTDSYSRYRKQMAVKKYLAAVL

T3: human VIP (human)
T3 construct: also called Vasoactive Intestinal Peptide
T3 peptide: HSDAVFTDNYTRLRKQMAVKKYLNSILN

B1: anti-PACAP antibody Ab1.H (antibody, human IgG1, kappa, N297A, V domains shown)
VH: EVQLVESGGGLVQPGGSLRLSCAASGFTVSSAVMNWVRQAPGKGLEWIGSIVASGTTYYASSANGRFTISRDNSKNTLYLQMNSLRAEDTAVYYCARGGGEFFIWGQGTLVTVSS
VL: DIQMTQSPSTLSASVGDRVTITCQSSESVYSNYLSWYQQKPGKAPKFLIYQASNLASGVPSRFSGSGSGTEFTLTISSLQPDDFATYYCAGGYSENIVGFGGGTKVEIKR
notes: humanized form of Ab1, full length
B2: anti-PACAP antibody Ab22 (antibody, human IgG1, kappa, N297A, V domains shown)
VH: QEQLVESGGGLVQPEGSLTLTCTASGFDFSSNAMCWVRQAPGKGLEWIGSIYNADGKNYYAIWAKGRFTISRTSSTTVTLQMTSLTAADTATYFCARDFDLWGQGTLVTVSS
VL: AAVLTQTPSPVSAAVGGTVTINCQSSQSVYDNDWLAWFQQKPGQPPKLLIYLTSTLASGVPSRFSGSGSGTQFTLTISGVQCDDAATYYCLGGYDEDGDTHVFGGGTEVVVKR
notes: full-length rabbit/human chimeric antibody; PACAP38 specific
B3: anti-PACAP antibody Ab23 (antibody, human IgG1, kappa, N297A, V domains shown)
VH: QSVEESGGRLVTPGTPLTLTCTVSGFSLNNYAMSWVRQAPGKGLEWIGIMGVNDITYYASWAKGRFTISKTSTTVDLKMTSLTTEDTATYFCTREIRDDGDSSDKLWGPGTLVTVSS
VL: AIKMTQTPSSVSAAVGGTVTINCQASEDIYTNLAWYQQKPGQPPNLLIYDASDLASGVPSRFSGSGDGTQFTLTISAVQCEDAATYYCQGVAWSSNTGYGSAFGGGTEVVVKR
notes: as for B2

Columns and labels:
human PACAP38 [1] = target: T1, human PACAP38; test: cell-based or functional assay
human PACAP38 [2] = target: T1, human PACAP38; test: cell-based or functional assay
human PACAP38 [3] = target: T1, human PACAP38; test: HTRF binding, biotin-PACAP38
Procedure, shortened: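 Antibody dilution series (top 100 nM final) incubated with N- or C-terminal biotinylated PACAP38 (35 nM final), alone or with 350 nM PACAP27 or VIP. HTRF with Eu³⁺ anti-human Fc donor and d2-streptavidin acceptor, 1 h at room temperature, read at 620/665 nm; EC₅₀ from binding curves.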

human PACAP38 [4] = target: T1, human PACAP38; test: inhibition of 30 nM biotin-PACAP38 binding to PC-12 cells, TRF
Experimental: To identify antibodies that block PACAP38 binding to PAC1-R-expressing cells, adherent PC-12 cells (ATCC, Manassas, Va.) expressing PAC1-R were used in a Europium-based PAC1-R expressing cells binding assay.
Antibody solutions were incubated with N-terminal biotinylated PACAP38 at 10× the final concentration (100 nM or 30 nM) for 1 hr, then added to PC-12 cells that were plated 24 hrs. prior in black clear bottom 96 well plates (COSTAR™, Corning Incorporated, Corning, N.Y.) and further incubated for 1 hr at room temperature. After three washes, the cells were incubated with 20 μl Europium-labeled streptavidin (PerkinElmer, Waltham, Mass.) for 1 hr at room temperature. Cells were washed three times, then 20 μl DELFIA® Enhancement solution (PerkinElmer, Waltham, Mass.) was added to each well and incubated for 15 minutes with gentle shaking. Plates were read (Time Resolved Fluorescence (“TRF”)) on SPECTRAMAX® (Molecular Devices, Sunnyvale, Calif.) plate reader.
FIGS. 14A-14BB are representative of the inhibition curves obtained by this method (results are shown for Ab1, Ab2, Ab3, Ab4, Ab5, Ab6, Ab7, Ab8, Ab9, Ab10, Ab11, Ab12, Ab13, Ab14, Ab15, Ab16, Ab17, Ab18, Ab19, Ab1.H, Ab10.H, Ab22, Ab23, Ab3.H, Ab4.H, Ab5.H, Ab9.H, and Ab12.H, respectively) wherein the PAC1-R expressing cells were PC-12 cells.

human PACAP27 [5] = target: T2, human PACAP27; test: cell-based or functional assay
human PACAP38 [6] = target: T1, human PACAP38; test: cell-based or functional assay
human PACAP27 [7] = target: T2, human PACAP27; test: SPR, Ab immobilised
human VIP = target: T3, human VIP; test: SPR, Ab immobilised
human PACAP38 [8] = target: T1, human PACAP38; test: SPR, Ab immobilised
Procedure, shortened: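 SPR with antibody amine-coupled to the chip and human PACAP38 flowed as analyte at 1.23–100 nM in PBST containing 0.25 M arginine, 0.2 mg/ml BSA and 0.005% azide, pH 7. Association lasted 2–4 min and dissociation 3–120 min. Kinetics were fitted to a 1:1 Langmuir model.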

human PACAP27 [9] = target: T2, human PACAP27; test: inhibition of 0.1 nM 125I-PACAP27 binding to human PAC1-R membranes
Experimental: To identify antibodies that block PACAP27 binding to PAC1-R, antibodies at an initial concentration of 30 nM were diluted in incubation buffer (50 mM Hepes pH 7.4, 1 mM CaCl₂, 5 mM MgCl₂, 0.2% BSA) and serial 1:3 dilutions were performed. Antibody dilutions (30 nM, 10 nM, 3 nM, 1 nM, 0.3 nM, 0.1 nM, 0.03 nM, 0.01 nM, 0.003 nM and 0.001 nM) were then mixed and pre-incubated at 25° C. for 30 minutes with 0.1 nM of ¹²⁵I-labelled PACAP27 in incubation buffer. The antibody: ¹²⁵I-labelled PACAP27 mixture was then added to 0.5 μg aliquots of cell membranes derived from Chem-1 cells expressing human recombinant PAC1-R long isoform in incubation buffer. The mixture was then incubated for 1 hour at 25° C. Following incubation, the samples were filtered and washed. Afterward, the filters were counted to quantitate ¹²⁵I-labelled PACAP27. As an experimental control, non-specific binding to the cell membranes was estimated using 0.1 μM of […] PACAP27.

IC50, 1 nM PACAP38-induced human VPAC2-R mediated cAMP increase (human PACAP38 [1]) | IC50, 5 nM PACAP38-induced human VPAC1-R mediated cAMP increase (human PACAP38 [2]) | EC50 (human PACAP38 [3]) | IC50 (human PACAP38 [4]) | IC50, 0.1 nM PACAP27-induced PAC1-R mediated cAMP increase (human PACAP27 [5]) | IC50, 0.1 nM PACAP38-induced PAC1-R mediated cAMP increase (human PACAP38 [6]) | Kd (human PACAP27 [7]) | koff (human PACAP27 [7]) | kon (human PACAP27 [7]) | Kd (human VIP) | koff (human VIP) | kon (human VIP) | Kd (human PACAP38 [8]) | koff (human PACAP38 [8]) | kon (human PACAP38 [8]) | IC50 (human PACAP27 [9]) | Binder
0.983 nM | 1.02 nM | 0.46 nM | 56.3 nM | 0.0577 nM | 0.26 nM | ≤ 0.013 nM | ≤ 1e-05 s⁻¹ | 760000 M⁻¹ s⁻¹ | 4800 nM | 0.18 s⁻¹ | 38000 M⁻¹ s⁻¹ | ≤ 0.021 nM | ≤ 1e-05 s⁻¹ | 470000 M⁻¹ s⁻¹ | 0.7 nM | B1
0.515 nM | 1.3 nM | 0.57 nM | 13.8 nM | – | 0.101 nM | – | 0.1 s⁻¹ | – | 690 nM | 0.18 s⁻¹ | 270000 M⁻¹ s⁻¹ | ≤ 0.027 nM | ≤ 1e-05 s⁻¹ | 370000 M⁻¹ s⁻¹ | – | B2
1.79 nM | 2.67 nM | 0.56 nM | 14.9 nM | – | 0.115 nM | 35 nM | 0.031 s⁻¹ | 890000 M⁻¹ s⁻¹ | 730 nM | 0.32 s⁻¹ | 430000 M⁻¹ s⁻¹ | 0.071 nM | 3.6e-05 s⁻¹ | 510000 M⁻¹ s⁻¹ | – | B3
